Our source for the stoichiometry N values is PMC3241668.

The target in the test is Daedalus-expressed CARMA-CARD (N-terminal CARD domain of human CARMA1, Asp2-Thr104) (human). Nature of the test: SEC.

Substance “Daedalus-expressed CARMA-CARD (N-terminal CARD domain of human CARMA1, Asp2-Thr104) (domain or fragment)” gave a stoichiometry N of 2.
